This passage reports IC50 and Km results from PMC4424335 (The Journal of Biological Chemistry, 2015).

Peptide text beside a SMILES is read from it. * marks the point of attachment. Propyl(3-UDP) = O=c1ccn([C@@H]2O[C@H](COP(=O)(O)OP(=O)(O)OCCC*)[C@@H](O)[C@H]2O)c(=O)[nH]1

The target of data set [1] is T1, TaOGT (Trichoplax O-GlcNAc transferase) (Trichoplax adhaerens, UniProt A0A0D5X2K0).
T1 construct: TaOGT, start identified by RACE, wild type, GST tag cleaved
The experiment in a line: fluorescence UDP-detection OGT assay, […] UDP-GlcNAc. The data set is classed as biochemical.

The target of data set [2] is TaOGA53 (Trichoplax O-GlcNAcase) (Trichoplax adhaerens, UniProt A0A0D5X1V2).
Substrate in data set [3]: CC(=O)N[C@H]1[C@@H](OP(=O)(O)OP(=O)(O)OC[C@H]2O[C@@H](n3ccc(=O)[nH]c3=O)[C@H](O)[C@@H]2O)O[C@H](CO)[C@@H](O)[C@@H]1O
Description: steady-state kinetics (Km), fluorescence UDP-detection assay. The data set is classed as biochemical, Trichoplax adhaerens. How it is done:
steady-state kinetics (Km), fluorescence UDP-detection assay on TaOGT (Trichoplax O-GlcNAc transferase) | The Km for UDP-GlcNAc was measured in the presence of excess peptide substrate

Substrate in the data set “purified protein”: CC(=O)N[C@H]1[C@H](Oc2ccc3c(C)cc(=O)oc3c2)O[C@H](CO)[C@@H](O)[C@@H]1O
Description: purified protein.

A word on the IC50: it is the midpoint of a concentration-inhibition curve. The molecule `CC(=O)N[C@H](C(=O)N[C@H](C(=O)N1CCC[C@H]1C(=O)N[C@H](C(=O)N[C@@H](COCCCOP(=O)(O)OP(=O)(O)OC[C@H]1O[C@@H](n2ccc(=O)[nH]c2=O)[C@H](O)[C@@H]1O)C(=O)N[C@H](C(=O)N[C@@H](C)C(N)=O)[C@@H](C)O)C(C)C)[C@@H](C)O)C(C)C` [Goblin 1] (Ac-VTPVS(Propyl(3-UDP))TA-NH2) registered an IC50 in data set [1] of 27 µM.
For `CCNC1=N[C@@H]2[C@@H](O)[C@H](O)[C@@H](CO)O[C@@H]2S1` [Thiamet G], the IC50 result in data set [2] is “c, IC50 of Thiamet G and GlcNAcstatin C for TaOGA53”.

B1: TaOGT (Trichoplax O-GlcNAc transferase) (Trichoplax adhaerens) (protein)
chain: MVDQTNGIAEIAHREYQQGNYERAEHLAMEWWRHEQDNVGVLLLLSSIHFQTRKLDKSAHFCNMAIKSNPALSEAYSNLGNVFKERNQLKEALENYRYALRLRPDFIDGYINLASALVAAQDLEGAVKAYATALQYNPNLYCVRNDLGNLLKALGRLEEAKACYLKAIETQPNFAVAWSNLGCVFNSQGEIWLAIHHFEKAVTLDNGFLDAYINLGNVLKEARIFDRASTAYLRALNLSPNNPTVLGNLACVYYEQGLMDLAVDTYKRAIELQPNFPDAYCNLANALKELGKVTEAEECYNTALSLCPTHADSLNNLANIKREKGQIGEASKLYRKALEIFPEFAAAHSNLASVLQQQGKLQEALAHYKEAIRINPSFADAYSNMGNTLKEMQDVQGAIQCYTRAIQINPNFADAHSNLASIHKDSGSIPEAIANYRTALKLKPDFPDAFCNLAHCYQIICDWADYELRMKRLVSIVQDQLEKGRLPSVHPHHTMLYPLDGHTRKAISNRHGNLCLDRTATIHKPPYKFTPNIILPNGKLKIGYVSSDFGNHPTSHLMQSIPKLHDRSRVEVYCYSLTADDGTSFRKEISRGSDHFVDLSQVQCHGDAADRINADGIHILLNMNGYTKGARNEIFALRPAPIQMMWLGYPGTSGAAFMDYIITDKITSPMEYADHYSEKLAFLPNSFFIGDHRHMFAHLSVRATDNGRDRVINLSEGSAPDLDMKDIIEAQLREALSKIDNTSSHINTSTNLISNGTLGSNAVIPNGGPIINGNGDSVPNGPGVNVPSGMVLTTRAQYGLPSKAIIYCNFNQLYKIDPKILETWVRILKRVPNSILWLLRFPAAGEAMLKNTILKMGLPADRVVFTNVAPKEEHVRRGQLADICLDTPMCNGHTTGMDVLWAGVPMITMPKETLASRVASSQLTSLGVSELIAKDLTEYEDVAVKYGSDITRLRKLQDKIWQLRHKSTLFNTKTYCQNLEELYVKVWDRYSQGLEPDHIIY
notes: TaOGT, start identified by RACE, wild type, GST tag cleaved
A word on the Km: it is the substrate concentration at which the rate is half of its maximum. Take B1: the Km in data set [3] was 13 ± 2 µM.

B2: TaOGA53 (Trichoplax O-GlcNAcase) (Trichoplax adhaerens) (protein)
chain: MNHNFICGVIEGFYGLPWSFTDRLDLFERLKKWGLNTYIYGPKDDYKHRSAWRDLYTETEADLFRALIKNAIVNDVIFVYAISPGNDICYSNASDIAALKDKLDQVRSFGCEAFAVFFDDIYCTMSKKDKGNFASFADAHVYIANLIYEHLNRPAVFMFCPTEYCATRAVPSVENSPYLTVIGDKLHPDVKVLWTGPDVISPFISVDSILALQEILKRKPIIWDNIHANDYDHSRIFLGPYQDRPIELAKVLSGVITNPNCEYRMNYVPIRTFSLWCQSQDKDDVQYSAESALTCAVEEWVKEFSVPSQLNIDQENIAVTMKDGIAKKDMTVTTEHLLLLIDIFYLPHKYGRHSIHLINMARWLQVNSNMITSTKETDKATSPSVKMWFQVFNEFNSLCQGILLLYDYLTMCPNQAISRELNSYIINLKKIFHILSLHINSLGTEATKHSSDATDTVDSSDAVVYGGILGEVVKIIKEGSDGDLKSSQQQVTACAIEVSLKNSDANMGADIPTNATVIG
Take B2: the Km in the data set “purified protein” came out at 78 ± 5 µM.

B3: TaOGA54 (Trichoplax O-GlcNAcase) (Trichoplax adhaerens) (protein)
chain: MTSDKFLSGVVEGFYGKPWSFEQRKTLFSNMAKWGLNTYMYGPKDDEKHRAAWKQAYSKREGDSLRALIRAAEESGILFIYAISPGVDITYSSNRDMKFLKDKLDQIRNFGCNSFAIFFDDIDTVMCLQDQEEFESFAAAQVEVTNEIYKYLGMPANFLFCPTEYCAARADPNVKESKYLVTVGTGLHSDIHIMWTGPKVVSNKISVESILELQTVLRRKPVIWDNIHANDYEQGRLNLGPYDCRPAELMESLNGIFTNPNCEFELNYVPIRTFSLWCQSKRTRFNYDVEKALEQSIREWTEEFCIPRLPDGYLLEADTSDTNVNEYMDDEMQSDSRPISPANSMETDKDELTVKDIRLLVELFYLPQKHGKTANDLLAQAKWLKSNFRIAALSRKPNDTSEGSNLDEHNTDYIAAKEWDKRFSKFRSICQIIHQFGDRLMTCRNRVLLYEVYNYVADLCGILYHLISRIHSLANPEKLEKRSDSEQSSFRYGGFVGDIHRLIVSTDEYEESTLKNSDAYVIRPFMPSDEETLYDLCLKSCIENSNGDEIYKREPRIIGDRDLGAYIYLHPEYIYVLEDDRDKICGYLCGALDSKQFYERYESEWLTQIRDRHPQPENDIASWTPEEIVANSFYNFTPPTDVSVLYLSHLEARFDSSVPEKVIKRIIRFILEQLKAKGSYGASMLIDSWRTNLRRIFTSMGFVDLQEYSWMSEQKCMIAIKLM
B3: the Km in the data set “purified protein” came to 2000 ± 100 µM.
